Measurements taken from publication PMC6381110, “Allosteric enhancement of ORP1-mediated cholesterol transport by PI(4,5)P2/PI(3,4)P2” (Nature Communications, 2019).
Several values for one entry are separate records, joined by “and”; a condition that tells them apart may be missing. Equal entries are not always repeated.

Key:
[1] = target: the molecule itself; test: crystal structure; ORP1-ORD (524-950) with cholesterol, hanging drop 18 °C, 0.1 M NaAc pH 4.6, 2.0 M Na formate; oligomer by crystal symmetry
[2] = target: the molecule itself; test: crystal structure; ORP1-ORD (534-950) with cholesterol, hanging drop 18 °C, 0.1 M Na cacodylate pH 6.2, 1.2 M Na citrate; oligomer by crystal symmetry
[3] = target: the molecule itself; test: SEC; Superdex-200 10/300, 10 mM Tris-HCl pH 8.0, 150 mM NaCl, 2 mM DTT; ORP1-ORD 5 uM alone or with cholesterol (free or in liposomes, 4:1); cholesterol shifts the protein towards monomer

B1: ORP1-ORD (residues 524-950) (domain or fragment, human, UniProt Q9BXW6 524-950, looked up)
chain: DALSNGIKKHRTSLPSPMFSRNDFSIWSILRKCIGMELSKITMPVIFNEPLSFLQRLTEYMEHTYLIHKASSLSDPVERMQCVAAFAVSAVASQWERTGKPFNPLLGETYELVRDDLGFRLISEQVSHHPPISAFHAEGLNNDFIFHGSIYPKLKFWGKSVEAEPKGTITLELLEHNEAYTWTNPTCCVHNIIVGKLWIEQYGNVEIINHKTGDKCVLNFKPCGLFGKELHKVEGYIQDKSKKKLCALYGKWTECLYSVDPATFDAYKKNDKKNTEEKKNSKQMSTSEELDEMPVPDSESVFIIPGSVLLWRIAPRPPNSAQMYNFTSFAMVLNEVDKDMESVIPKTDCRLRPDIRAMENGEIDQASEEKKRLEEKQRAARKNRSKSEEDWKTRWFHQGPNPYNGAQDWIYSGSYWDRNYFNLPDIY
notes: OSBP-related domain (ORD) of human ORP1, residues 524-950 on ORP1L (1-950) numbering; Crystallised with cholesterol and with PI(4,5)P2; also called ORP1-ORD (524-950); source: E. coli Rosetta(DE3), purified (Ni-NTA, ion exchange, gel filtration)
stoichiometry N [1]: 3

B2: ORP1-ORD (residues 534-950) (domain or fragment, human, UniProt Q9BXW6 534-950, looked up)
chain: RTSLPSPMFSRNDFSIWSILRKCIGMELSKITMPVIFNEPLSFLQRLTEYMEHTYLIHKASSLSDPVERMQCVAAFAVSAVASQWERTGKPFNPLLGETYELVRDDLGFRLISEQVSHHPPISAFHAEGLNNDFIFHGSIYPKLKFWGKSVEAEPKGTITLELLEHNEAYTWTNPTCCVHNIIVGKLWIEQYGNVEIINHKTGDKCVLNFKPCGLFGKELHKVEGYIQDKSKKKLCALYGKWTECLYSVDPATFDAYKKNDKKNTEEKKNSKQMSTSEELDEMPVPDSESVFIIPGSVLLWRIAPRPPNSAQMYNFTSFAMVLNEVDKDMESVIPKTDCRLRPDIRAMENGEIDQASEEKKRLEEKQRAARKNRSKSEEDWKTRWFHQGPNPYNGAQDWIYSGSYWDRNYFNLPDIY
notes: OSBP-related domain (ORD) of human ORP1, residues 534-950 on ORP1L (1-950) numbering; Crystallised with cholesterol from Na cacodylate; also called ORP1-ORD (534-950); ORP1S lacking the N-terminal 20 amino acids; source: E. coli Rosetta(DE3), purified (Ni-NTA, ion exchange, gel filtration)
stoichiometry N [2]: 2

B3: ORP1S (ORP1-ORD, residues 514-950) (natural protein, human, UniProt Q9BXW6 514-950, looked up)
chain: MSEEKDCGGGDALSNGIKKHRTSLPSPMFSRNDFSIWSILRKCIGMELSKITMPVIFNEPLSFLQRLTEYMEHTYLIHKASSLSDPVERMQCVAAFAVSAVASQWERTGKPFNPLLGETYELVRDDLGFRLISEQVSHHPPISAFHAEGLNNDFIFHGSIYPKLKFWGKSVEAEPKGTITLELLEHNEAYTWTNPTCCVHNIIVGKLWIEQYGNVEIINHKTGDKCVLNFKPCGLFGKELHKVEGYIQDKSKKKLCALYGKWTECLYSVDPATFDAYKKNDKKNTEEKKNSKQMSTSEELDEMPVPDSESVFIIPGSVLLWRIAPRPPNSAQMYNFTSFAMVLNEVDKDMESVIPKTDCRLRPDIRAMENGEIDQASEEKKRLEEKQRAARKNRSKSEEDWKTRWFHQGPNPYNGAQDWIYSGSYWDRNYFNLPDIY
notes: ORP1S, the short isoform encoded by human OSBPL1A, residues 514-950 on the numbering of the long isoform ORP1L (1-950); holds only the ORD; pET21b construct; In gel filtration it is a mixture of monomers, dimers and trimers; also called short isoform of OSBPL1A; source: E. coli Rosetta(DE3), purified (Ni-NTA, ion exchange, gel filtration)
stoichiometry N [3]: 2 and 3
